Data reported in article PMC10371346, “Modeling of ACE2 and antibodies bound to SARS-CoV-2 provides insights into infectivity and immune evasion” (JCI Insight, 2023).

Target: T1, recombinant His-tagged wild-type SARS-CoV-2 Spike trimer (SARS-CoV-2, Wuhan-Hu-1 (wild-type), UniProt P0DTC2)
T1 construct: also called wild-type Spike trimer; wild-type Spike
Experiment: flow cytometry on cells; Cas1-CAR-NK92MI cells displaying the scFv-CAR incubated with recombinant His-tagged Spike trimer in PBS with 0.5 mM CaCl2 and 0.9 mM MgCl2, 1 hour at 4°C under gentle agitation; washed, stained with PE anti-His and Alexa Fluor 647 anti-human IgG (H+L); parental NK92MI as negative and 293T-hACE2 as positive control
Conditions: one partner purified

B1: REGN10933 (casirivimab) single chain variable fragment displayed as a chimeric antigen receptor on NK92MI cells (scFv, V domains shown)
VH: QVQLVESGGGLVKPGGSLRLSCAASGFTFSDYYMSWIRQAPGKGLEWVSYITYSGSTIYYADSVKGRFTISRDNAKSSLYLQMNSLRAEDTAVYYCARDRGTTMVPFDYWGQGTLVTVSS
VL: DIQMTQSPSSLSASVGDRVTITCQASQDITNYLNWYQQKPGKAPKLLIYAASNLETGVPSRFSGSGSGTDFTFTISGLQPEDIATYYCQQYDNLPLTFGGGTKVEIK
notes: scFv domain of casirivimab (REGN10933); the variable domains are those of REGN10933 in PDB 6XDG; rest of the chimeric antigen receptor (hinge, transmembrane and signalling parts); also called Cas1-CAR; Cas1
B1: binds.
